± gives the uncertainty stated by the source.
Test: self-splicing fitness, log relative to wild type (ln ratio); higher = more splicing; Tetrahymena group I intron in knt gene, E. coli kanamycin selection, DiMSum; sequences stand for … in CUCUCU…GGAGGGAAAAGUUAUCAGGCAUGCACCUGGUAGCUAGUCUUUAAACCAAUAGAUUGCAUCGGUUUAAAAGGCAAGACCGUCAAAUUGCGGGAAAGGGGUCAACAGCCGUUCAGUACCAAGUCUCAGGGGAAACUUUGAGAUGGCCUUGCAAAGGGUAUGGUAAUAAGCUGACGGACAUGGUCCUAACCACGCAGCCAAGUCCUAAGUCAACAGAUCUUCUGUUGAUAUGGAUGCAGUUCACAGACUAAAUGUCGGUCGGGGAAGAUGUAUUCUUCUCAUAAGAUAUAGUCGGACCUCUCCUUAAUGGGAGCUAGCGGAUGAAGUGAUGCAACACUGGAGCCGCUGGGAACUAAUUUGUAUGCGAAAGUAUAUUGAUUAGUUUUGGAGUACUCGUGGUCG
Outline: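 Pooled colonies went to amplicon sequencing on an Illumina HiSeq 2500 after six replicate transformations. The plates were LB agar with 100 μg/mL carbenicillin, 50 μM IPTG and 0.2% rhamnose, with or without 25 μg/mL kanamycin, incubated overnight at 37°C or 30°C. The E. coli BL21(DE3) library had all eight P1ex-region intron nucleotides randomised, the intron placed in the knt kanamycin-resistance gene on pET-22b(+). DiMSum fitness is the error-weighted combination of replicate fold changes, kanamycin against none, normalised to wild type.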

Sequence | self-splicing fitness (ln) (30 °C) | self-splicing fitness (ln) (37 °C)
UCGUAGCAAUAUUACGUGUC | -3.24 ± 0.25 | -2.38 ± 0.25
UCUAAGCAAUAUUACGAAGC | -1.05 ± 0.39 | -1.8 ± 0.36
UCUAAGCAAUAUUACGACUA | -3.07 ± 0.25 | -0.59 ± 0.15
UCUAAGCAAUAUUACGCAUA | -1.86 ± 0.18 | -2.33 ± 0.25
UCUAAGCAAUAUUACGCCCA | -1.48 ± 0.15 | -0.486 ± 0.17
UCUAAGCAAUAUUACGCUCG | -1.43 ± 0.2 | -1.36 ± 0.18
UCUAAGCAAUAUUACGGCCA | -1.21 ± 0.22 | -1.17 ± 0.21
UCUAAGCAAUAUUACGGCGA | -0.734 ± 0.086 | -0.474 ± 0.092
UCUAAGCAAUAUUACGGCGU | -2.01 ± 0.11 | -0.795 ± 0.11
UCUAAGCAAUAUUACGGGGG | -3.17 ± 0.22 | -0.678 ± 0.17
UCUAAGCAAUAUUACGUCAU | -3.45 ± 0.2 | -2.4 ± 0.16
UCUAAGCAAUAUUACGUCCA | -2 ± 0.14 | -0.707 ± 0.13
UCUAAGCAAUAUUACGUCCC |  | -0.386 ± 0.41
UCUAAGCAAUAUUACGUCGA | -0.33 ± 0.088 | 0.0723 ± 0.11
UCUAAGCAAUAUUACGUCUA | -2.51 ± 0.33 | -2.25 ± 0.4
UCUAAGCAAUAUUACGUCUG | -1.72 ± 0.16 | -1.18 ± 0.19
UCUCAGCAAUAUUACGAAUU | -3.12 ± 0.13 | -1.77 ± 0.15
UCUCAGCAAUAUUACGAGGA | -3.23 ± 0.26 | -1.77 ± 0.14
UCUCAGCAAUAUUACGAGGG | -2.87 ± 0.11 | -1.31 ± 0.12
UCUCAGCAAUAUUACGAGUC | -3.98 ± 0.18 | -2.93 ± 0.18
UCUCAGCAAUAUUACGAUCU | -1.68 ± 0.14 | -2 ± 0.2
UCUCAGCAAUAUUACGCAUG |  | -1.04 ± 0.45
UCUCAGCAAUAUUACGCCGC | -2.99 ± 0.34 | -1.52 ± 0.36
UCUCAGCAAUAUUACGCGUC | -3.62 ± 0.27 | -2.81 ± 0.29
UCUCAGCAAUAUUACGGAUU | -1.73 ± 0.097 | -1.15 ± 0.11

Sequence | self-splicing fitness (ln) (30 °C) | self-splicing fitness (ln) (37 °C)
UCUCAGCAAUAUUACGGUGA | -1.8 ± 0.13 | -1.14 ± 0.12
UCUCAGCAAUAUUACGGUUC | -2.57 ± 0.21 | -1.73 ± 0.34
UCUCAGCAAUAUUACGUAUC | -3.5 ± 0.24 | -1.9 ± 0.25
UCUCAGCAAUAUUACGUCUC | -4.6 ± 0.31 | -3 ± 0.23
UCUCAGCAAUAUUACGUGGU | -1.7 ± 0.1 | -2.48 ± 0.16
UCUCAGCAAUAUUACGUGUG | -2.33 ± 0.098 | -2.27 ± 0.11
UCUCAGCAAUAUUACGUUCC | -2.72 ± 0.36 | -0.417 ± 0.28
UCUGAGCAAUAUUACGAAGG | -3.05 ± 0.21 | -0.953 ± 0.15
UCUGAGCAAUAUUACGAGAC | -2.52 ± 0.17 | 
UCUGAGCAAUAUUACGAGCU | -2.99 ± 0.24 | -2.23 ± 0.47
UCUGAGCAAUAUUACGAGGA | -3.8 ± 0.4 | -3.29 ± 0.42
UCUGAGCAAUAUUACGAGUG | -3.98 ± 0.4 | -1.24 ± 0.22
UCUGAGCAAUAUUACGAUAG | -3.28 ± 0.18 | -1.93 ± 0.18
UCUGAGCAAUAUUACGAUCG |  | -0.514 ± 0.41
UCUGAGCAAUAUUACGCAAU | -2.13 ± 0.16 | -2.97 ± 0.21
UCUGAGCAAUAUUACGCAUA | -2.73 ± 0.17 | -1.19 ± 0.15
UCUGAGCAAUAUUACGCGCA | -2.16 ± 0.3 | 
UCUGAGCAAUAUUACGCUGA | -1.89 ± 0.17 | -0.151 ± 0.15
UCUGAGCAAUAUUACGGAUU | -3.51 ± 0.26 | -1.72 ± 0.23
UCUGAGCAAUAUUACGGCCG | -2.7 ± 0.37 | 
UCUGAGCAAUAUUACGGCGU | -1.82 ± 0.1 | -0.983 ± 0.14
UCUGAGCAAUAUUACGGGAU | -2.35 ± 0.18 | -2.54 ± 0.24
UCUGAGCAAUAUUACGGGGU | -4.62 ± 0.32 | -2.28 ± 0.25
UCUGAGCAAUAUUACGGGUA |  | -2.42 ± 0.34
UCUGAGCAAUAUUACGGUCC | -2.51 ± 0.25 | 
